Measurements as given in article doi:10.1101/2020.07.08.194076v1.

Columns and labels:
purified protein [1] = substrate: C=C(C)CCO[P@@](=O)(O)OP(=O)(O)O; assay: purified protein; details: co-substrate 100 µM DMAPP
purified protein [2] = substrate: CC(C)=CCOP(=O)(O)OP(=O)(O)O; assay: purified protein; details: co-substrate 100 µM IPP

B1: SlG1 (Solanum lycopersicum) (protein)
chain: VSSKAEKFILPEFEFQEYMVTKAIKVNKALDEAIPMQEPIKVHEAMRYSLLAGGKRVRPILCMASCEVVGGDESLAIPAACAVEMIHTMSLVHDDLPCMDNDDLRRGKPTNHKIFGENTAVLAGDALLSLAFEHVATKTQNVPPQRVVQAIGELGSAVGSEGLVAGQIVDLASEGKQVSLTELEYIHHHKTSKLLEAAVVCGAIMGGGNEVDVERMRSYARCIGLLFQVVDDILDVTKSSDELGKTAGKDLITDKATYPKLMGLEKARQYAGELMAKAMNELSYFDYAKAAPLYHIASYIANRQN
Km (purified protein [1]): 74.18 ± 7.55 µM
Km (purified protein [2]): 31.82 ± 2.92 µM

B2: AtG11 (Arabidopsis thaliana) (protein)
chain: SSIVSSSVVTKEDNLRQSEPSSFDFMSYIITKAELVNKALDSAVPLREPLKIHEAMRYSLLAGGKRVRPVLCIAACELVGGEESTAMPAACAVEMIHTMSLIHDDLPCMDNDDLRRGKPTNHKVFGEDVAVLAGDALLSFAFEHLASATSSDVVSPVRVVRAVGELAKAIGTEGLVAGQVVDISSEGLDLNDVGLEHLEFIHLHKTAALLEASAVLGAIVGGGSDDEIERLRKFARCIGLLFQVVDDILDVTKSSKELGKTAGKDLIADKLTYPKIMGLEKSREFAEKLNREARDQLLGFDSDKVAPLLALANYIAYRQN
Km (purified protein [1]): 38.49 ± 4.94 µM
Km (purified protein [2]): 32.86 ± 4.86 µM

B3: SlG2 (Solanum lycopersicum) (protein)
chain: IATNEKVVMEKEEFNFKVYVAEKAICVNKALDEAIMVKDPPKIHEAMRYSLLAGGKRVRPMLCLAACELVGGNQGNAMAAACAVEMIHTMSLIHDDLPCMDDDDLRRGKPTNHKVYGEDVAVLAGDALLAFAFEYLATATTGVPPSRILVAVAELAKSVGTEGLVAGQVADLACTGNPNVGLEMLEFIHIHKTAALLEASVVIGAILGGGADEEVDKLRRFAQCIGLLFQVVDDILDVTKSSSELGKTAGKDLAVDKTTYPKLLGLEKAKEFAAELNGEAKQQLAAFDSHKAAPLIALADYIANRQN
Km (purified protein [1]): 79.75 ± 8.33 µM
Km (purified protein [2]): 49.55 ± 5.31 µM
